In paper PMC10119932 one finds Kd, koff and kon data, which are given here for 3 substances.

By Kd is commonly meant the equilibrium constant for the complex coming apart. The low end stands for tighter binding, the high end for weaker binding. One may read the koff as a measure of how fast the partners let go of each other. One may read the kon as a measure of how fast the partners come together. The low end stands for slow association, the high end for fast association.

This test concerns the target Human FcRn (human) (UniProt P55899). Kind of test: BLI; human FcRn immobilised, antibody or ADC as analyte; performed as previously reported (refs. 35, 36); no conditions told. (In general: BLI is a label-free optical method that tracks binding on a fibre tip over time.)
Chain of UniProt P55899 (P55899 24-365): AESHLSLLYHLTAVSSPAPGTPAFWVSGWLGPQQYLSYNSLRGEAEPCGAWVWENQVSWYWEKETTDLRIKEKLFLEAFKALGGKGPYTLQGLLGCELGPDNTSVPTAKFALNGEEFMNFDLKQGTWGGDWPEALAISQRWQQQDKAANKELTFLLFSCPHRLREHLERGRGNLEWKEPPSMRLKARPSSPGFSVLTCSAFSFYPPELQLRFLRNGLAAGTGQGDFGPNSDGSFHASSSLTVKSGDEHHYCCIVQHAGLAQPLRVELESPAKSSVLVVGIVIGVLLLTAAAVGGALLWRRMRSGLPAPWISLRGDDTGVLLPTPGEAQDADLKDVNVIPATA
Take “Trastuzumab (Herceptin), human IgG1 (antibody)”: the Kd amounted to 5.65 nM, the koff was 0.00377 s⁻¹ and the association rate constant (kon) stood at 667000 M⁻¹ s⁻¹.
On the same counts, the results for Trastuzumab-K248-MMAE (5a) (antibody) are 5.6 nM, 0.000848 s⁻¹ and 152000 M⁻¹ s⁻¹.
Taken in the same sequence, the figures for Trastuzumab-K288-MMAE (5b) (antibody) were 7.22 nM, 0.00383 s⁻¹ and 530000 M⁻¹ s⁻¹.
